B1: 单克隆抗体5B9 (antibody, V domains shown)
VH: EVQLVESGGGLVKPGGSLKLSCAASGFTFSSYAMSWVRQSPEKRLEWVADISSGGSYTYYPDTVTGRFTISRDNAKNTLYLEMSSLGSEDTAMYYCAREYGGGFDYWGQGTTLTVSS
VL: DIQMTQSPASLSASVGETVTITCRASGNIHNYLAWYQQKQGKSPQLLVYNAKTLADGVPSRFSGSGSGTQYSLKINSLQPEDFGSYYCQHFWSIPRTFGGGTKLEIK
B2: 单克隆抗体5G6 (antibody, V domains shown)
VH: EVQLVESGGGLVKPGGSLKLSCAASGFTFSNYAMSWVRQSPEKRLEWVADISSGGSYTYYPDTVTGRFTISRDNAKNTLYLEMTSLRSEDTAMYYCAREYGGGFDYWGQGTTLTVSS
VL: DIQMTQSPASLSASVGETVTITCRASGNIHNYLAWYQQKQGKSPQLLVYNAKTLADGVPSRFSGSGSGTQYSLKINSLQPEDFGNYYCQHFWSIPRTFGGGTKLEIK
B3: 单克隆抗体7C10 (antibody, V domains shown)
VH: QVQLQQPGAELVRPGASVRLSCKASGYTFTNYWMNWVKQRPGQGLEWIGSINPSDGYTKYNQKFKDKATLTVDKSSSTAYLQLSSPTSEDSAVYYCTRKKVNYDYAMDYWGQGTSVTVSS
VL: DIVMSQSPSSLAVSVGEKVTMSCKSSQSLLYSSNQKNYLAWYQQKPGQSPKLLIYWASTRESGVPDRFTGSGSGTDFTLTISSVKAEDLAFYYCHQYYSYPYTFGGGTKLERK

Molecular target: 重组NDM-1蛋白 (新德里金属β-内酰胺酶, 肺炎克雷伯菌) (肺炎克雷伯菌 (Klebsiella pneumoniae)) (UniProt C7C422)
Sequence of UniProt C7C422 (C7C422 29-270 limits assumed): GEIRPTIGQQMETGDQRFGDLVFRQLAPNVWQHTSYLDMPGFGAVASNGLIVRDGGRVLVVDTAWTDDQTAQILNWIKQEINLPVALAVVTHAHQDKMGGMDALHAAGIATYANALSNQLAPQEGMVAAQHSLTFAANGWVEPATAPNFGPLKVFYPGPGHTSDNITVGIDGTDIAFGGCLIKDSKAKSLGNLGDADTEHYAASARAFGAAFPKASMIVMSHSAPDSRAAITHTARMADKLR
Assay: indirect ELISA, NDM-1 coated at 100 ng/well, purified antibody diluted 1:10000 to 1:2560000, positive if the ratio to the negative control is >2.1

Row | Binder | 效价 (ELISA titer, highest positive dilution) (fold dilution)
1 | B1 | 1e+06
2 | B2 | 1e+06
3 | B3 | 600000

— CN113150137A
